From article PMC8165985 come the findings set out here.

The target in this data set is T1, YycF (Staphylococcus aureus (ATCC29213?)) (UniProt Q9RDT5).
T1 sequence: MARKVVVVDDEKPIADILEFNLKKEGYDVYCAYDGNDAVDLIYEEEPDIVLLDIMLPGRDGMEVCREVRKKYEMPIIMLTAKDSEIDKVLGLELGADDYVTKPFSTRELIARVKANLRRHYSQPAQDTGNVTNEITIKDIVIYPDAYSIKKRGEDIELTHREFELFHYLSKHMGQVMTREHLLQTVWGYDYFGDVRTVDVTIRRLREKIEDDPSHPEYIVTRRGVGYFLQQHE
Description: EMSA. Background: In EMSA bound probe runs differently from free probe, usually more slowly.

In the case of “CTGAAAATTAATCACACTATGTTACAGGAAAATTAAGTTGCAATTACAAATATTTCCGTTTAATTATAACAACAATCTATTGCAAATTAAAATACTATCAATTACCATATGGCTTACAACCTAACTAACGAAAGGTAGGTAAAG (double strand) [icaA promoter region]”, the binding entry is “binds”. The entry for “GCGCAATTTGGTGAAGTTTGATAGATGATACATTCTATTAAACTTCCTTTTTTTATGTCTTTTTTTACCTAATTGTTAAGAGGTTTTGCACTAATGGCACTTAATATAAGGAAGATAGCCGCATAACGAGCAGTATATATCAAATACATTTCAAAAAAAGCTGATTTCTATCAAATAATGAATAGTAATCAGCTTTTTCACATTGCCTAAGGACTTTATGCCCTAGGTTTATATATCAC (double strand) [sarA promoter region]” is “binds”.
